Measurements: article PMC8327961, “Nse5/6 inhibits the Smc5/6 ATPase and modulates DNA substrate binding” (The EMBO Journal, 2021)

T1: Smc6 (Twin-Strep-tag removed, as in the octamer for lysine cross-linking) (S. cerevisiae, UniProt Q12749 1-1114)
T1 construct: Smc6, S. cerevisiae; subunit of the octamer used for XL-MS; source: E. coli (DE3) Rosetta, purified as part of the hexamer; tag removed by HRV-3C before SEC of the octamer; not shown: Twin-Strep (after a 3C site), C-terminal, cleaved
T1 sequence (looked up): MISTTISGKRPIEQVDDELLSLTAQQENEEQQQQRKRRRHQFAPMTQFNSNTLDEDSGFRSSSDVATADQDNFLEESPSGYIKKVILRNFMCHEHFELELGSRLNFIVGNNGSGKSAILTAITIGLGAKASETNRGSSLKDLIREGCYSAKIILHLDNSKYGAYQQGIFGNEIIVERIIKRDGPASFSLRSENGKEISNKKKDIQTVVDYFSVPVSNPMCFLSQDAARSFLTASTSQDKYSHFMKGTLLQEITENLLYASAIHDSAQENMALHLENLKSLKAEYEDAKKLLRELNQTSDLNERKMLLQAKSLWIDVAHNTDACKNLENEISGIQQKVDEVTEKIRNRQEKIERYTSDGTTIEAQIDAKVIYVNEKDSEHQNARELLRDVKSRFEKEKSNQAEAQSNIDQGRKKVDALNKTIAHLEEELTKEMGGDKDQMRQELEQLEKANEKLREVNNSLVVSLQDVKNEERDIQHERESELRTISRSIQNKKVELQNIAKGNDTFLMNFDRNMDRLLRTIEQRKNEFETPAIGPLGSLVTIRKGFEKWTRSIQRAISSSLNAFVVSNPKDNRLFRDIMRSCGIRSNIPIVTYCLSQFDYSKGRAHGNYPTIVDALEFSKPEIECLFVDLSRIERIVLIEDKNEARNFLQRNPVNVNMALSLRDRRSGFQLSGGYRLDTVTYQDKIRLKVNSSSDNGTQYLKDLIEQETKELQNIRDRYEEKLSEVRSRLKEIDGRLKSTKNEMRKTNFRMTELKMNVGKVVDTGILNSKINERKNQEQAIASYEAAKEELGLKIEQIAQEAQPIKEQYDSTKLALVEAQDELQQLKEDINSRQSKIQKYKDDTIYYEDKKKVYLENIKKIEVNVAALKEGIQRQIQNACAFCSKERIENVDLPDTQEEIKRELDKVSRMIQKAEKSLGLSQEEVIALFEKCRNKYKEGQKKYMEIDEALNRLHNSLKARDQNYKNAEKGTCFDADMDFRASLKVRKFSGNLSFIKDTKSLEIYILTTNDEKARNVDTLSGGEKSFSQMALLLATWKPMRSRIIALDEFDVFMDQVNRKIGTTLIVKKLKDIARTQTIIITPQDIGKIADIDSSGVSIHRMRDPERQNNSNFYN

T2: Nse1/3/4 sub-complex (S. cerevisiae, UniProt Q07913 1-336; Q05541 1-303; P43124 1-402)
T2 construct: Nse1, S. cerevisiae; Nse3, S. cerevisiae; Nse4, S. cerevisiae; used where the text names only the module as the partner of a cross-link and not which subunit; also called Nse1/3/4 module; Nse4/3/1 module; source: E. coli (DE3) Rosetta, purified as part of the hexamer and octamer; copies: + +
T2 sequence (looked up) 1: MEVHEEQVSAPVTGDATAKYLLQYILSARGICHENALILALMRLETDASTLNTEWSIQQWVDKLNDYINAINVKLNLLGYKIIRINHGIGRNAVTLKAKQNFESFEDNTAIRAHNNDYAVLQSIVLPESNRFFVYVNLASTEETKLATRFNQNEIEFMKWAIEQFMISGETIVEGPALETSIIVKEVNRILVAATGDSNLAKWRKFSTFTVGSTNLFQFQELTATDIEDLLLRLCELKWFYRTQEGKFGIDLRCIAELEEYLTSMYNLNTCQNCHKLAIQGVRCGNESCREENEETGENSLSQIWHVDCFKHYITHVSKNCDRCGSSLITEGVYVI
T2 sequence (looked up) 2: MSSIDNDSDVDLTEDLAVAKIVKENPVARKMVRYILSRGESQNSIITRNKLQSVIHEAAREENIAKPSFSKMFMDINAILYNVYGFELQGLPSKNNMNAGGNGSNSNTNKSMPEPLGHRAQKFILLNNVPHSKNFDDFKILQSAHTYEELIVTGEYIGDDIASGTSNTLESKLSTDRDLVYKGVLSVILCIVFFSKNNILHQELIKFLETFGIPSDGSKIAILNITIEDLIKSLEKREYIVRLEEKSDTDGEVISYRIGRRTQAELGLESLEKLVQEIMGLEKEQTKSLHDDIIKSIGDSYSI
T2 sequence (looked up) 3: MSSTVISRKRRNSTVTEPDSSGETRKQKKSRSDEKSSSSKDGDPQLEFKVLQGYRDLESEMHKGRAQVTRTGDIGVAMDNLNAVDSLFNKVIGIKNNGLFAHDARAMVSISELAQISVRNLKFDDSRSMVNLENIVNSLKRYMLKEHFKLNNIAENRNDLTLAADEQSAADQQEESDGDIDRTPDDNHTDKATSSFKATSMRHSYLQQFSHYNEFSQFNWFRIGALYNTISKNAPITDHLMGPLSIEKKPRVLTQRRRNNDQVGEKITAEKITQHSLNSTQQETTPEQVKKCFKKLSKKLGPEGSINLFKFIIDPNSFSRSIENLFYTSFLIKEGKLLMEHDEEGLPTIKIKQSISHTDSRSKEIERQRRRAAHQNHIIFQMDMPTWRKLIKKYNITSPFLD


What was measured:
[1] = target: Smc5/6 octamer (hexamer plus Nse5/6) (Saccharomyces cerevisiae, UniProt Q08204;Q12749;Q07913;P38632;Q05541;P43124;Q03718;P40026 …); assay: fluorescence anisotropy; details: ATPase buffer: 10 mM Hepes-KOH pH 7.5, 150 mM K-OAc, 2 mM MgCl2, 20% glycerol; anisotropy at 25 C; plasmid pulldown bound at room temperature, high-salt buffer …
[2] = target: Smc5/6 hexamer (Smc5, Smc6, Nse1, Nse2, Nse3, Nse4) (Saccharomyces cerevisiae) (UniProt Q08204+Q12749+Q07913+P38632+Q05541+P43124); assay: fluorescence anisotropy; details: ATPase buffer: 10 mM Hepes-KOH pH 7.5, 150 mM K-OAc, 2 mM MgCl2, 20% glycerol; anisotropy at 25 C; plasmid pulldown bound at room temperature, high-salt buffer …
[3] = target: T1, Smc6 (Twin-Strep-tag removed, as in the …); assay: cross-linking; XL-MS with the lysine-reactive PhoX (0.25 mM, 20 min, RT) on the reconstituted octamer, 1.6 µM; salt buffer 20 mM Hepes-KOH pH 7.5, 250 mM NaCl; details: both partners purified
[4] = target: T1, Smc6 (Twin-Strep-tag removed, as in the …); assay: cross-linking; XL-MS with PhoX (0.25 mM, 20 min, RT) on the octamer, 1.6 µM; ATPase buffer (10 mM Hepes-KOH pH 7.5, 150 mM potassium acetate, 2 mM MgCl2, 20% glycerol); without and with 2 mM ATP and 16 nM plasmid DNA; wild-type and Smc5(EQ)/Smc6(EQ) octamers; details: both partners purified
Nse1/3/4 sub-complex = target: T2, Nse1/3/4 sub-complex; assay: cross-linking; XL-MS with the lysine-reactive PhoX (0.25 mM, 20 min, RT) on the reconstituted octamer, 1.6 µM; salt buffer 20 mM Hepes-KOH pH 7.5, 250 mM NaCl; details: both partners purified

Chain of Smc5/6 octamer (hexamer plus Nse5/6) (P40026 whole entry, one chain of several): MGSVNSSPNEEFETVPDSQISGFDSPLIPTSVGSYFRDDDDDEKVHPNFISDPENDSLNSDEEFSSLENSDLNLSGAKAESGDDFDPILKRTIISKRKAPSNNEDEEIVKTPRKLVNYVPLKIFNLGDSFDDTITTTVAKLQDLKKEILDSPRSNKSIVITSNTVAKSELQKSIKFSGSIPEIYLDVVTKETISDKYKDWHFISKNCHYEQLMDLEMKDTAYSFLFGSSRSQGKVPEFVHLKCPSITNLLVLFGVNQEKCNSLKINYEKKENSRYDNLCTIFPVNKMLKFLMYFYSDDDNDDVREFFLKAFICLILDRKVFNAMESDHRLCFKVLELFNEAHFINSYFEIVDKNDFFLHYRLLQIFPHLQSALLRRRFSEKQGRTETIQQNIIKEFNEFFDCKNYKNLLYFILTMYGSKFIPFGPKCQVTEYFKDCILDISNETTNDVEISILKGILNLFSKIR

Row | binding result [3] | binding result [4] | Molecule | also measured
1 | – | – | 40-mer ssDNA | Kd [1]: 100 nM; Kd [2]: 150 nM
2 | binds | – | Smc5 (natural protein, S. cerevisiae, UniProt Q08204 1-1093, looked up, Smc5, S. cerevisiae; stood in the assays as a subunit of the hexamer or octamer; source: E. coli (DE3) Rosetta, co-expressed with the other subunits of the hexamer, purified as part of the complex) MTSLIDLGRYVERTHHGEDTEPRSKRVKIAKPDLSSFQPGSIIKIRLQDFVTYTLTEFNLSPSLNMIIGPNGSGKSTFVCAVCLGLAGKPEYIGRSKKVEDFIKNGQDVSKIEITLKNSPNVTDIEYIDARDETIKITRIITRSKRRSDYLINDYQVSESVVKTLVAQLNIQLDNLCQFLSQERVEEFARLKSVKLLVETIRSIDASLLDVLDELRELQGNEQSLQKDLDFKKAKIVHLRQESDKLRKSVESLRDFQNKKGEIELHSQLLPYVKVKDHKEKLNIYKEEYERAKANLRAILKDKKPFANTKKTLENQVEELTEKCSLKTDEFLKAKEKINEIFEKLNTIRDEVIKKKNQNEYYRGRTKKLQATIISTKEDFLRSQEILAQTHLPEKSVFEDIDIKRKEIINKEGEIRDLISEIDAKANAINHEMRSIQRQAESKTKSLTTTDKIGILNQDQDLKEVRDAVLMVREHPEMKDKILEPPIMTVSAINAQFAAYLAQCVDYNTSKALTVVDSDSYKLFANPILDKFKVNLRELSSADTTPPVPAETVRDLGFEGYLSDFITGDKRVMKMLCQTSKIHTIPVSRRELTPAQIKKLITPRPNGKILFKRIIHGNRLVDIKQSAYGSKQVFPTDVSIKQTNFYQGSIMSNEQKIRIENEIINLKNEYNDRKSTLDALSNQKSGYRHELSELASKNDDINREAHQLNEIRKKYTMRKSTIETLREKLDQLKREARKDVSQKIKDIDDQIQQLLLKQRHLLSKMASSMKSLKNCQKELISTQILQFEAQNMDVSMNDVIGFFNEREADLKSQYEDKKKFVKEMRDTPEFQSWMREIRSYDQDTKEKLNKVAEKYEEEGNFNLSFVQDVLDKLESEIAMVNHDESAVTILDQVTAELRELEHTVPQQSKDLETIKAKLKEDHAVLEPKLDDIVSKISARFARLFNNVGSAGAVRLEKPKDYAEWKIEIMVKFRDNAPLKKLDSHTQSGGERAVSTVLYMIALQEFTSAPFRVVDEINQGMDSRNERIVHKAMVENACAENTSQYFLITPKLLTGLHYHEKMRIHCVMAGSWIPNPSEDPKMIHFGETSNYSFD | –
3 | – | binds | Nse2 (natural protein, S. cerevisiae, UniProt P38632 1-267, looked up, Nse2, S. cerevisiae; source: E. coli (DE3) Rosetta, co-expressed with the other subunits of the hexamer, purified as part of the complex) MALNDNPIPKSVPLHPKSGKYFHNLHARDLSNIYQQCYKQIDETINQLVDSTSPSTIGIEEQVADITSTYKLLSTYESESNSFDEHIKDLKKNFKQSSDACPQIDLSTWDKYRTGELTAPKLSELYLNMPTPEPATMVNNTDTLKILKVLPYIWNDPTCVIPDLQNPADEDDLQIEGGKIELTCPITCKPYEAPLISRKCNHVFDRDGIQNYLQGYTTRDCPQAACSQVVSMRDFVRDPIMELRCKIAKMKESQEQDKRSSQAIDVL | –
4 | – | binds | Nse4 (natural protein, S. cerevisiae, UniProt P43124 1-402, looked up, Nse4, S. cerevisiae; also called kleisin Nse4; source: E. coli (DE3) Rosetta, co-expressed with the other subunits of the hexamer, purified as part of the complex) MSSTVISRKRRNSTVTEPDSSGETRKQKKSRSDEKSSSSKDGDPQLEFKVLQGYRDLESEMHKGRAQVTRTGDIGVAMDNLNAVDSLFNKVIGIKNNGLFAHDARAMVSISELAQISVRNLKFDDSRSMVNLENIVNSLKRYMLKEHFKLNNIAENRNDLTLAADEQSAADQQEESDGDIDRTPDDNHTDKATSSFKATSMRHSYLQQFSHYNEFSQFNWFRIGALYNTISKNAPITDHLMGPLSIEKKPRVLTQRRRNNDQVGEKITAEKITQHSLNSTQQETTPEQVKKCFKKLSKKLGPEGSINLFKFIIDPNSFSRSIENLFYTSFLIKEGKLLMEHDEEGLPTIKIKQSISHTDSRSKEIERQRRRAAHQNHIIFQMDMPTWRKLIKKYNITSPFLD | –
5 | – | binds | Nse3 (natural protein, S. cerevisiae, UniProt Q05541 1-303, looked up, Nse3, S. cerevisiae; source: E. coli (DE3) Rosetta, co-expressed with the other subunits of the hexamer, purified as part of the complex) MSSIDNDSDVDLTEDLAVAKIVKENPVARKMVRYILSRGESQNSIITRNKLQSVIHEAAREENIAKPSFSKMFMDINAILYNVYGFELQGLPSKNNMNAGGNGSNSNTNKSMPEPLGHRAQKFILLNNVPHSKNFDDFKILQSAHTYEELIVTGEYIGDDIASGTSNTLESKLSTDRDLVYKGVLSVILCIVFFSKNNILHQELIKFLETFGIPSDGSKIAILNITIEDLIKSLEKREYIVRLEEKSDTDGEVISYRIGRRTQAELGLESLEKLVQEIMGLEKEQTKSLHDDIIKSIGDSYSI | –
6 | binds | – | Nse5-AviTag (from Nse5-AviTag-3C-Twin-Strep, Twin-Strep removed) (natural protein, S. cerevisiae, UniProt Q03718 1-556, looked up, Nse5, S. cerevisiae, full length; subunit of the octamer used for XL-MS; the AviTag lies before the 3C site and should remain; source: E. coli (DE3) Rosetta, co-expressed with Nse6, purified (StrepTrap, heparin, SEC); Twin-Strep removed by HRV-3C; not shown: Twin-Strep (after a 3C site), C-terminal, cleaved) MDGALINSVLYVSPRNGAHYFVELTEKHLLAFEMLNSMCLLENYDHVLLFLECQFGKSHNLAVIPFDIILVLFTLSTLSEYYKEPILRANDPYNTSRETLSRRALKLLQKYLAILKEFDSEQYNLYDLELLRCQFFLAIDTLTPKKQKWGFDRFRRTKSESGVTYRQNASVDPELDQAKTFKNPYRSYISCLEQRNTILGNRLLNLKLNEPGEFINMILWTLSNSLQESTPLFLSSHEIWMPLLEILIDLFSCRQDYFIQHEVAQNVSKSLFVQRLSESPLAVFFESLNTRNFANRFSEYVFLNCDYKLPSDNYATPVHPVYNGENTIVDTYIPTIKCSPLYKSQKSLALRRKLIGSCFKLLLRVPDGHRLITPRIVADDVIQGISRTLASFNDILQFKKFFMTENLSQESYFIPLLAEGTLSEILKDTQECVVILTLVENLSDGVSFCNEVIGLVKSKCFAFTEQCSQASYEEAVLNIEKCDVCLLVLLRYLLHLIGTEAILDAKEQLEMLHAIEKNDSGRRQWAKALNLGNDPPLLYPIVSQMFGVHDKSVIIE | binding result (Nse1/3/4 sub-complex): binds
